Here are results for three molecules from paper PMC12781114, “Mechanistic and Molecular Dynamics Studies Reveal that Increased Loop 3 Mobility Alters Substrate Capture in an NADH:Quinone Oxidoreductase” (Biochemistry, 2025).

The target of series [1] is T1, NADH:quinone oxidoreductase (NQO-P78G) (Pseudomonas aeruginosa, UniProt Q9I4V0, P78G).
T1 construct: gene PA1024
The experiment in a line: anaerobic stopped-flow reductive half-reaction (flavin reduction at […] nm), hyperbolic fit; steady-state kinetics. The format is biochemical.

The test system of series [2] is COC1=C(OC)C(=O)C(C)=CC1=O. The experiment in a line: purified protein. The settings on record: pH 6.0, 25.0 °C. The format is biochemical, Pseudomonas aeruginosa.

T1 sequence (Q9I4V0 whole entry P78G): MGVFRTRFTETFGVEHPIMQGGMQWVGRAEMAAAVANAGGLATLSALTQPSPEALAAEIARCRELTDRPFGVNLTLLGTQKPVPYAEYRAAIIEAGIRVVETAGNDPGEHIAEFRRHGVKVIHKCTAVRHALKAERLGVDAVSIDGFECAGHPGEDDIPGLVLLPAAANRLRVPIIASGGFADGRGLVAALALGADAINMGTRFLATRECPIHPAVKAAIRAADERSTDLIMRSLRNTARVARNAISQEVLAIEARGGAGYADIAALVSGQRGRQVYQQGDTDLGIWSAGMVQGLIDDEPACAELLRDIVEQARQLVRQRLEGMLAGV

What is called Kd is the free concentration of one partner at which half of the binding sites on the other are occupied at equilibrium, for simple one-to-one binding. The low end stands for a tighter complex, the high end for a looser complex. In series [1], `NC(=O)C1=CN([C@@H]2O[C@H](COP(=O)(O)OP(=O)(O)OC[C@H]3O[C@@H](n4cnc5c(N)ncnc54)[C@H](O)[C@@H]3O)[C@@H](O)[C@H]2O)C=CC1` [NADH] showed a Kd of 450 ± 40 µM.
The Km is the substrate concentration at which the rate is half of its maximum. In the case of “NADH:quinone oxidoreductase (NQO-P78G) (Pseudomonas aeruginosa PAO1; P78G)”, the Km in series [2] (FMN active site pocket, binds the reduced enzyme (ping-pong bi-bi)) turned out to be 10 ± 1 µM.
Turning to “NADH:quinone oxidoreductase (NQO-WT) (Pseudomonas aeruginosa PAO1)”, the Michaelis constant (Km) in series [2] was found to be 35 ± 6 µM.
